Source: the Immune Epitope Database (IEDB)
Each block holds one sequence with its values, some of them ahead of it.

What was measured:
HLA-A*24:02 [1] = assay: IEDB peptide-MHC binding, purified MHC/direct/fluorescence; filed as Kd, often an IC50 or EC50 that approximates it; ≥ and ≤ were set here for values at or beyond the usual limits of such assays
HLA-A*02:01 [2] = assay: as above
HLA-A*69:01 [3] = assay: as above; conditions: source organism: Influenza A virus (A/England/627/01(H1N2))
HLA-B*44:02 = assay: as above
HLA-B*46:01 [4] = assay: as above; conditions: source organism: Influenza A virus (A/England/627/01(H1N2))
HLA-B*58:01 = assay: as above
HLA-A*03:01 [5] = assay: as above
HLA-B*08:01 = assay: as above; conditions: source organism: Influenza A virus (A/England/627/01(H1N2))
HLA-A*01:01 = assay: as above
HLA-B*27:05 = assay: as above
HLA-B*07:02 [6] = assay: as above
HLA-B*15:01 [7] = assay: as above
HLA-B*40:01 = assay: as above
HLA-A*24:03 = assay: as above; conditions: source organism: Zaire ebolavirus
HLA-A*02:12 = assay: as above; conditions: source organism: Zaire ebolavirus
HLA-A*02:03 = assay: as above; conditions: source organism: Zaire ebolavirus
HLA-A*68:02 = assay: as above; conditions: source organism: Zaire ebolavirus
HLA-A*29:02 [8] = assay: as above; conditions: source organism: Zaire ebolavirus
HLA-A*02:19 = assay: as above; conditions: source organism: Zaire ebolavirus
HLA-A*02:01 [9] = assay: IEDB peptide-MHC binding, purified MHC/competitive/fluorescence; filed as Kd, often an IC50 or EC50 that approximates it; ≥ and ≤ were set here for values at or beyond the usual limits of such assays; conditions: source organism: Zaire ebolavirus
HLA-A*69:01 [10] = assay: as above; conditions: source organism: Zaire ebolavirus
HLA-B*46:01 [11] = assay: as above; conditions: source organism: Zaire ebolavirus
HLA-B*57:01 = assay: as above; conditions: source organism: Zaire ebolavirus
HLA-B*27:03 = assay: as above; conditions: source organism: Zaire ebolavirus
HLA-A*26:01 = assay: as above; conditions: source organism: Zaire ebolavirus
HLA-B*39:01 = assay: as above; conditions: source organism: Zaire ebolavirus
HLA-B*51:01 = assay: as above; conditions: source organism: Zaire ebolavirus
HLA-B*15:01 [12] = assay: as above; conditions: source organism: Zaire ebolavirus
HLA-B*18:01 = assay: IEDB peptide-MHC binding, purified MHC/direct/fluorescence; filed as Kd, often an IC50 or EC50 that approximates it; ≥ and ≤ were set here for values at or beyond the usual limits of such assays; conditions: source organism: Escherichia coli O157:H7
HLA-A*11:01 = assay: as above; conditions: source organism: Escherichia coli O157:H7
HLA-A*31:01 = assay: as above; conditions: source organism: Escherichia coli O157:H7
HLA-A*29:02 [13] = assay: IEDB peptide-MHC binding, purified MHC/competitive/fluorescence; filed as Kd, often an IC50 or EC50 that approximates it; ≥ and ≤ were set here for values at or beyond the usual limits of such assays; conditions: source organism: Campylobacter jejuni subsp. jejuni NCTC 11168 = ATCC 700819
HLA-A*02:01 [14] = assay: IEDB peptide-MHC binding, purified MHC/competitive/fluorescence; ≥ and ≤ were set here for values at or beyond the usual limits of such assays; conditions: source organism: Zaire ebolavirus
HLA-A*03:01 [15] = assay: as above; conditions: source organism: Zaire ebolavirus
HLA-B*07:02 [16] = assay: as above; conditions: source organism: Zaire ebolavirus
HLA-A*24:02 [17] = assay: as above; conditions: source organism: Zaire ebolavirus
HLA-B*15:01 [18] = assay: as above; conditions: source organism: Zaire ebolavirus
[19] = source organism: Influenza A virus (A/England/627/01(H1N2))
[20] = source organism: Influenza A virus (A/Puerto Rico/8/34/Mount Sinai(H1N1))
[21] = source organism: Escherichia coli O157:H7

Sequence: IWARTYFFK
Kd (HLA-A*24:02 [1]; source organism: Salmonella enterica subsp. enterica serovar Choleraesuis str. SC-B67): 0.296 µM

Sequence: KMARLGKGY
Kd (HLA-A*02:01 [2]; [19]): ≥ 20 µM | Kd (HLA-A*69:01 [3]): ≥ 20 µM | Kd (HLA-B*44:02; [19]): ≥ 20 µM | Kd (HLA-B*46:01 [4]): ≥ 20 µM | Kd (HLA-B*58:01; [19]): ≥ 20 µM | Kd (HLA-A*03:01 [5]; [20]): 0.252 µM | Kd (HLA-B*08:01): ≥ 20 µM | Kd (HLA-A*01:01; [19]): ≥ 20 µM | Kd (HLA-B*27:05; [20]): 0.379 µM | Kd (HLA-B*07:02 [6]; [19]): ≥ 20 µM | Kd (HLA-A*24:02 [1]; [19]): ≥ 20 µM | Kd (HLA-B*15:01 [7]; [20]): 0.178 µM | Kd (HLA-B*40:01; [19]): ≥ 20 µM

Sequence: LEFNSSLAI
Kd (HLA-A*24:03): ≥ 20 µM | Kd (HLA-A*02:12): ≥ 20 µM | Kd (HLA-A*02:03): ≥ 20 µM | Kd (HLA-A*68:02): ≥ 20 µM | Kd (HLA-A*03:01 [5]; source organism: Zaire ebolavirus): ≥ 20 µM | Kd (HLA-A*29:02 [8]): ≥ 20 µM | Kd (HLA-A*02:19): ≥ 20 µM | Kd (HLA-B*40:01; source organism: Ebola virus - Gabon (1994-1997)): 0.0258 µM | Kd (HLA-A*02:01 [9]): ≥ 20 µM | Kd (HLA-A*69:01 [10]): ≥ 20 µM | Kd (HLA-B*46:01 [11]): ≥ 20 µM | Kd (HLA-B*57:01): ≥ 20 µM | Kd (HLA-B*27:03): ≥ 20 µM | Kd (HLA-A*26:01): ≥ 20 µM | Kd (HLA-B*39:01): ≥ 20 µM | Kd (HLA-B*51:01): ≥ 20 µM | Kd (HLA-B*15:01 [12]): ≥ 20 µM

Kd (HLA-A*02:01 [2]; [21]): 0.0367 µM | Kd (HLA-B*18:01): ≥ 20 µM | Kd (HLA-B*44:02; [21]): ≥ 20 µM | Kd (HLA-B*58:01; [21]): ≥ 20 µM | Kd (HLA-A*11:01): ≥ 20 µM | Kd (HLA-A*03:01 [5]; [21]): ≥ 20 µM | Kd (HLA-A*01:01; [21]): ≥ 20 µM | Kd (HLA-B*27:05; [21]): ≥ 20 µM | Kd (HLA-B*07:02 [6]; [21]): ≥ 20 µM | Kd (HLA-A*24:02 [1]; [21]): ≥ 20 µM | Kd (HLA-B*15:01 [7]; [21]): ≥ 20 µM | Kd (HLA-A*31:01): ≥ 20 µM | Kd (HLA-B*40:01; [21]): ≥ 20 µM
Sequence: LLKLWIDKV

Sequence: LYAYWYHLY
Kd (HLA-A*29:02 [13]): 0.0008 µM

Sequence: RVIPVYQVN
IC50 (HLA-A*02:01 [14]): ≥ 87.2 µM | IC50 (HLA-A*03:01 [15]): ≥ 277 µM | IC50 (HLA-B*07:02 [16]): ≥ 151 µM | IC50 (HLA-A*24:02 [17]): 51.6 µM | IC50 (HLA-B*15:01 [18]): ≥ 72.8 µM
